Results published in the supplement of paper PMC10567573.

B1: PDLIM7 (parent)
chain: AAGGVPGGGSNNGKTPVCHQCHKV
B2: ANKRD40 (parent)
chain: SLRENDFIEIELDRQELTYQELLR
B3: KLHL12 (parent)
chain: SMTTPRCYVGATVLRGRLYAIAGY

Variants of: B1
Assay: protein stability index of a GFP-peptide fusion (GPS, HEK-293T) (PSI 1-6); higher = more stable
Conditions: c terminus: a fixed tail appended
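Also: lentivirally expressed fusions sorted by FACS into six bins by GFP to DsRed ratio, PSI derived from sequencing read proportions per bin multiplied by bin number.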

Protein stability index: each site, then its substitutions
P6: M 4.35, W 1.96, E 4.88, Y 3.73, I 2.57, Q 3.42, K 4.05, L 3.23, G 2.19, C 3.05, R 3.73, N 3.46, F 2.85, V 3.04
A1: I 3.52, T 2.73, M 3.5, W 3.22, V 3.93, E 4.24, L 3.76, G 3.52, K 3.36, C 3.35, N 3.03, F 2.45, S 2.44, D 4.34, R 2.36, H 4.13, P 3.33, Y 1.95
G8: R 3.31, V 3.53, Y 2.96, S 2.9, A 3.58, C 3.12, E 5.24, I 3.48, T 4.16, N 3.14, Q 3.87, W 3.56, H 3.3, D 4.5, F 2.43, K 3.52, P 3.8, L 3.72, M 3.46
G7: D 4.3, H 3.68, S 3.95, F 2.9, M 2.06, N 4.05, Y 3.4, R 3.89, V 3.53, W 2.26, T 3.56, Q 3.93, K 4.09, P 3.4, L 3.47, E 4.47, C 3.49, I 3.1
G3: T 3.3, C 3.41, Y 3.54, H 4.17, K 3.87, N 3.14, D 4.08, I 2.02, S 3.42, F 3.31
G9: H 3.21, Y 3.56, L 3.19, N 3.21, Q 3.6, I 3.48, D 4.5, K 3.64, S 2.65, W 2.98, F 2.39, E 4.04, T 2.79, C 2.13, R 3.06, P 3.69, M 3.22, V 2.59
A2: K 4.11, G 3.43, P 2.15, V 3.97, L 3.53, N 4.08, F 3.86, C 2.73, R 3.33, D 3.81, E 4.76, Y 3.72, Q 4.19, S 3.84, W 3.88, I 3.49, H 3.63, M 3.78, T 3.08
S10: I 2.37, H 2.21, C 2.19, T 2.67, L 2.47, D 3.96, Q 3.02, N 3.32, P 2.9, F 2.02, K 3.18

Variants of: B2
Assay: as above
Conditions: c terminus: a fixed tail appended

Protein stability index: each site, then its substitutions
Q15: H 2.75, C 2.62, K 3.29, D 3.59, S 3.17
S1: Q 3.44, N 3.31, K 3.23, V 3.17, G 2.77, I 2.34, H 3.26, R 3.07, F 2.29
L12: R 4.14, W 2.8, I 2.69, N 4.17, T 3.88, Q 4.13, K 3.91, E 4.41, A 3.92, S 4.18, M 2.67
F7: A 4.21, E 4.46, S 4.03, D 4.24, N 4.05
R14: Y 1.95, P 2.86, A 2.87, L 1.73, C 2.09, N 3.54
E16: M 2.6, I 2.47, Q 3.18, L 2.99
L2: K 3.01, V 3.12, G 3.02, N 2.89, D 3.6, M 3.09, F 2.36, A 3.91, C 2.99, E 2.93, R 2.8
L17: E 3.37, Y 3.28, H 3.59, W 3.1, I 3.19, A 3.11, T 3.35, G 3.3
E21: A 2.44, W 1.85, F 1.69, G 2.67, H 2.76, K 2.67, Q 3.34, M 1.92
R24: C 2.72, L 3.09, P 3.06, Q 3.04, F 2.64, S 2.92, D 3.17, V 2.71
L23: H 3.6, Q 3.94, P 3.58, C 2.97, Y 3.43, I 2.76, D 4.25, S 4
D6: M 1.66, S 2.55, V 1.64, W 2.31, Y 1.9, G 2.82, A 2.42, L 2.15, F 2.12, N 2.99, P 2.97, Q 2.76, E 2.97
R3: A 3.29, K 3.23, V 2.44, Q 2.95, Y 2.65, D 2.9
E4: I 2.02, N 2.92, P 3.21, Q 2.97, W 2.19, G 2.57, R 2.31, L 2.05, T 2.7, F 2.41, V 1.83
I10: M 3.62, S 3.68, Y 3.33, K 3.48, L 3.16, T 4.06, H 4.34, N 3.75
N5: V 2.4, A 2.57, D 2.82, C 2.48, L 2.14, P 3.34, Q 2.96
T18: P 3.28, S 3.55, W 2.73, K 2.93, Q 3.37, E 3.49, V 2.22, G 3.53, M 2.12
D13: P 2.77, M 2.45, R 2.65, N 3.17, T 2.15
E9: F 1.82, H 2.27, D 3.47, C 2.17
Y19: K 3.99, Q 4.47, L 3.12, N 4.22, C 2.93, A 4.12, P 4.43, F 2.31, G 3.86
I8: C 3.57, F 2.56, V 3.62, P 3.89, K 4.02, W 3.26, Y 3.28
E11: S 2.45, L 1.94, G 3.26, M 2.41, F 2.28
Q20: L 2.04, H 2.76, N 2.65, G 3.15, C 2.16, T 2.97
L22: H 3.42, C 3.58, Y 2.9, F 3.14, E 3.66

Variants of: B3
Assay: as above
Conditions: c terminus: a fixed tail appended

Protein stability index: each site, then its substitutions
T4: R 2.16
P5: H 4.85
R17: Y 2.26, C 2.04
T12: S 1.63
A20: C 2.26, N 1.72
Y19: E 2.19, H 1.72, Q 2.11
Y24: Q 2.45
C7: L 3.82
G16: D 1.58, E 1.25
V13: H 3.25
V9: S 1.82, R 3.6, A 2, Y 3.18
G10: C 2.8, T 3.52
T3: F 1.62, Y 1.62
G23: W 2.54
Y8: N 1.5
M2: V 1.97, L 2.64
A11: C 2.29
S1: P 3.62
